Laboratory results reported in US20240294651A1 (KYMAB, published 2024).

Assays:
[1] = target: T1, biotinylated CXCR4-virus like particle (Integral Molecular, Lot INT-1793B) (human, UniProt P61073 1-352, VLP biotinylated, sites not stated); assay: SPR (Biacore 8K), biotinylated CXCR4 VLP captured on SA chip, Fab as analyte, 25 C, 1:1 model
T1 construct: also called hCXCR4 VLP; CXCR4 VLP

[2] = target: T2, human CXCR4 (cell-expressed) (human, UniProt P61073 1-352); assay: cell-based or functional assay
[3] = target: T2, human CXCR4 (cell-expressed); assay: cell-based or functional assay; remark: listed apart in the source
[4] = target: T3, terbium-labelled SNAP-CXCR4 on HEK-293 cells (Cisbio C1TT1CXCR4) (human, UniProt P61072 1-352 (Pan troglodytes entry), terbium label on the SNAP tag); assay: TR-FRET (Tag-lite) competition with AlexaFluor 647-CXCL12 on terbium-labelled SNAP-CXCR4 HEK-293 cells
T3 construct: Bought assay-ready cells; also called CXCR4 expressing cells; not shown: SNAP tag

B1: CL-82458 Fab fragment (Fab, V domains shown)
VH: EVQLVESGGDLVQPGGSLRLSCAASGFTFYSYAMNWVRQAPGKGLKWVSGISGSGDITYYADSVKGRFTISRDNSKNTLYLQMHSLRPEDTAIYYCAKGQLERRYYKYYGMDVWGQGTTVTVSS
VL: DIQMTQSPSSLSASVGDRVTITCRANQGIRNDLGWYQQKPGKAPKRLIYGASSLKSGVPSRFSGSGSGTEFTLTISSLQPEDFATYYCLQQNSYPLTFGGGTKVEIK
notes: Purified Fab fragment
Kd [1]: 1.26 nM | koff [1]: 0.00111 s⁻¹ | kon [1]: 887000 M⁻¹ s⁻¹

B2: CL-82658 Fab fragment (Fab, V domains shown)
VH: QVQLVESGGGVVQPGRSLRLSCAASGFSFSSYGMHWVRQAPGKGLEWVAVISYDGSNKYYADSVKGRFTISRDNSKNTLYLQMNSLRGEDTAVYYCSKGSLTPRRGYYYSYGMDVWGQGTTVTVSS
VL: DIQMTQSPSSLSASVGDRVTITCRASQGIRNDLSWYQQKPGKAPKRLIYAASSLQSGVPSRFSGSGSGTEFTLTISSLQPEDFATYYCLQHNGYPFTFGPGTKVDIK
notes: Purified Fab fragment
Kd [1]: 0.69 nM | koff [1]: 0.000423 s⁻¹ | kon [1]: 616000 M⁻¹ s⁻¹

B3: CL-82574 Fab fragment (Fab, V domains shown)
VH: QVQLVESGGGVVQPGRSLRLSCAASGFTFYSYGMHWVRQAPGKGLEWVAVIWYGGTNKYYADSVKGRFTISRDNSKNTLYLQMNSLTAEDTAVYYCARGQLERRRGGLNIWGQGTVVTVSS
VL: DIQMTQSPSSLSASVGDRVTITCRASQGVRDDLGWYQQKPGKAPKRLIYAASSLQSGVPSRFSGSGSGTEFTLTISSLQPEDFATYYCLQHNSYPFTFGPGTKVDIK
notes: Purified Fab fragment
Kd [1]: 0.52 nM | koff [1]: 0.000481 s⁻¹ | kon [1]: 927000 M⁻¹ s⁻¹

B4: CL-82523 (antibody, human IgG4 S228P, kappa, V domains shown)
VH: EVQLVESGGGLVQPGGSLRLSCAASGFTFSNYAMSWVRQAPRKGLEWVSVISGSGGRTNYAGSVKGRFSITRDNSKNTLYLQMNSLRAEDTAVYYCVKGQLERRYYYYYGMDVWGQGITVTVSS
VL: DIQMTQSPSSLSASVGDRVTITCRASQGIRNDLGWYQQKPGKAPKRLIYAASSLQSGVPSRFSGSGSGTEFTLTISSLQPEDFATYYCLQHNSYPLTFGGGTKVEIKR
notes: Tested in human IgG4-PE format
% Max Inhibition, cAMP HTRF assay, CXCR4 BacMam HEK-293 cells [2]: 87% | IC50, cAMP HTRF assay, CXCR4 BacMam HEK-293 cells, 5.5 nM CXCL12 [2]: 24 nM | % Max Inhibition, beta-arrestin reporter assay, Tango CXCR4-bla U2OS cells [3]: 101% | IC50, beta-arrestin reporter assay, Tango CXCR4-bla U2OS cells, 30 nM CXCL12 [3]: 0.08 nM | % Max Inhibition [4]: 101% | IC50 [4]: 0.55 nM

B5: CL-82562 (antibody, human IgG4 S228P, kappa, V domains shown)
VH: QVQLVESGGGVVQPGRSLRLSCTASGFTFSNYAMHWVRQAPGKGLEWVAVISYDGSNKYCADSVKGRFTISRDNSKNTLYLQMNSLRAEDTAVYYCARGPLARRHYYYYGMDVWGQGTTVTVSS
VL: DIQMTQSPSSLSASVGDRVTITCRASQGIRNDLGWYQQKPGKAPKRLIYGASSLQSGVPSRFSGSGSGTEFTLTISSLQPEDFATYYCLQHNSYPRTFGQGTKVEIKR
notes: as for B4
% Max Inhibition, cAMP HTRF assay, CXCR4 BacMam HEK-293 cells [2]: 92% | IC50, cAMP HTRF assay, CXCR4 BacMam HEK-293 cells, 5.5 nM CXCL12 [2]: 99 nM | % Max Inhibition, beta-arrestin reporter assay, Tango CXCR4-bla U2OS cells [3]: 101% | IC50, beta-arrestin reporter assay, Tango CXCR4-bla U2OS cells, 30 nM CXCL12 [3]: 0.52 nM | % Max Inhibition [4]: 100% | IC50 [4]: 0.86 nM

B6: CL-82517 (antibody, human IgG4 S228P, kappa, V domains shown)
VH: EVQLVESGGGLVKPGGSLRLSCAASGFTFSSYSMNWVRQAPGKGLEWVSSISSSRRYIYYADSVKGRFTISRDNAKNSLYLQMNSLRAEDTAVYYCARAYGQVAPYYYYGMDVWGQGTTVTVSS
VL: AIQLTQSPSSLSASVGDRVTITCRASQGISSALAWYQQKPGKAPKLLIYDASSLESGVPSRFSGSGSGTDFTLTISSLQPEDFATYYCQQFNSYPLTFGGGTKVEIKR
notes: as for B4
% Max Inhibition, cAMP HTRF assay, CXCR4 BacMam HEK-293 cells [2]: 79% | IC50, cAMP HTRF assay, CXCR4 BacMam HEK-293 cells, 5.5 nM CXCL12 [2]: 34 nM | % Max Inhibition, beta-arrestin reporter assay, Tango CXCR4-bla U2OS cells [3]: 89.6% | IC50, beta-arrestin reporter assay, Tango CXCR4-bla U2OS cells, 30 nM CXCL12 [3]: 0.84 nM | % Max Inhibition [4]: 96% | IC50 [4]: 1.06 nM

B7: CL-82577 (antibody, human IgG4 S228P, kappa, V domains shown)
VH: QVQLQESGPGLVKPSQTLSLTCTVSGGSISSGGYYWTWIRQLPGKGLEWIGYMSYSGNTFYSPSLKSRFTISGDTSENQFSLKVNSVTSADTAIYYCARDRRIPMLRGIKGYYYGMDVWGQGTTVTVSS
VL: not shown
notes: as for B4
% Max Inhibition, cAMP HTRF assay, CXCR4 BacMam HEK-293 cells [2]: 92% | IC50, cAMP HTRF assay, CXCR4 BacMam HEK-293 cells, 5.5 nM CXCL12 [2]: 29 nM | % Max Inhibition, beta-arrestin reporter assay, Tango CXCR4-bla U2OS cells [3]: 102% | IC50, beta-arrestin reporter assay, Tango CXCR4-bla U2OS cells, 30 nM CXCL12 [3]: 0.24 nM | % Max Inhibition [4]: 98% | IC50 [4]: 0.92 nM

B8: CL-82571 (antibody, human IgG4 S228P, kappa, V domains shown)
VH: EVQLVESGGGLVQPGGSLKLSCAASGFTFSGSAMHWVRQASGKGLEWVGRIRSKANKYATAYAASVKGRFTISRDDSKNTAYVQMKSLKTEDTAVYYCTWELSNYDILTGFYYGMDVWGQGTTVTVSS
VL: DIQMTQSPSTLSASVGDRVTITCRASQSISNWLAWYQQKPGKAPKVLIYKASSLESGVPSRFSGSGSGTEFTLTISSLQPDDFATYYCQQYNSFSWTFGQGTKVEIKR
notes: as for B4
% Max Inhibition, cAMP HTRF assay, CXCR4 BacMam HEK-293 cells [2]: 88% | IC50, cAMP HTRF assay, CXCR4 BacMam HEK-293 cells, 5.5 nM CXCL12 [2]: 44 nM | % Max Inhibition, beta-arrestin reporter assay, Tango CXCR4-bla U2OS cells [3]: 85.6% | IC50, beta-arrestin reporter assay, Tango CXCR4-bla U2OS cells, 30 nM CXCL12 [3]: 1 nM | % Max Inhibition [4]: 96% | IC50 [4]: 1.47 nM

B9: CL-83083 Fab fragment (Fab, V domains shown)
VH: EVQLVESGGGLVQPGGSLKLSCAASGFTFSGSAMHWVRQASGKGLEWVGRIRSKANKYATAYAASVKGRFTISRDDSKNTAYVQMKSLKTEDTAVYYCTWELSNYDILTGFYYGMDVWGQGTTVTVSS
VL: QAGLTQPPSVSKGLRQTATLTCTGNSNNVGNLGAAWLQQHQGHPPKLLSYRNNNRPSGISERFFASRSGNTASLTITGLQPEDEADYYCSAWDSSLSAWVFGGGTKLTVL
notes: Purified Fab fragment
Kd [1]: 1.86 nM | koff [1]: 0.00102 s⁻¹ | kon [1]: 546000 M⁻¹ s⁻¹

B10: CL-82541 (antibody, human IgG4 S228P, kappa, V domains shown)
VH: QVQLQESGPGLVKPSQTLSLTCTVSGGSISSGRYYWSWIRQLPGKGLEWIGYISYSGNPFYSPSLKSRVTISVDTSENQFSLKLSSVTAADTAVYYCARDRRIPMLRGVKGYYYGMDVWGQGTTVTVSS
VL: not shown
notes: as for B4
% Max Inhibition, cAMP HTRF assay, CXCR4 BacMam HEK-293 cells [2]: 87% | IC50, cAMP HTRF assay, CXCR4 BacMam HEK-293 cells, 5.5 nM CXCL12 [2]: 74 nM | % Max Inhibition, beta-arrestin reporter assay, Tango CXCR4-bla U2OS cells [3]: 97.2% | IC50, beta-arrestin reporter assay, Tango CXCR4-bla U2OS cells, 30 nM CXCL12 [3]: 0.38 nM | % Max Inhibition [4]: 97% | IC50 [4]: 1.16 nM

B11: CL-82558 Fab fragment (Fab, V domains shown)
VH: QVQLQESGPGLVKPSQTLSLTCTVSGGSISSGGYYWSWIRQVPGKGLEWIGYISYSGNTFYSPSLKSRVTISVDTSENKFSLRLTSVTAADTAVYFCARDRRIPMLRGVKGYYYGLDVWGQGTTVTVSS
VL: DIVMTQSPLSLPVIPGEPASISCRSSQSLLHRNGYKYLDWYLQKPGQSPQLLIYLGSNRASGVPARFSGSGSGTDFTLKISRVEAEDVGVYYCMQALQTPWTFGQGTKVEIK
notes: Purified Fab fragment
Kd [1]: 0.67 nM | koff [1]: 0.00155 s⁻¹ | kon [1]: 2.32e+06 M⁻¹ s⁻¹

B12: CL-82473 (antibody, human IgG4 S228P, kappa, V domains shown)
VH: QVQLVESGGGVVQPGRSLRLSCAASGFTFSSYGMHWVRQAPGKGLEWVTVILYGGSNKYYADSVKGRFTISRDNSKNTLYLQMNSLRAEDTAVYYCARGMLTYYYSSGFDYWGQGTLVTVSS
VL: not shown
notes: as for B4
IC50, cAMP HTRF assay, CXCR4 BacMam HEK-293 cells, 5.5 nM CXCL12 [2]: > 1000 nM | % Max Inhibition, beta-arrestin reporter assay, Tango CXCR4-bla U2OS cells [3]: 85% | IC50, beta-arrestin reporter assay, Tango CXCR4-bla U2OS cells, 30 nM CXCL12 [3]: > 120 nM | % Max Inhibition [4]: 98% | IC50 [4]: 1.2 nM

B13: CL-82583 (antibody, human IgG4 S228P, kappa)
heavy: not shown
light: DIQMTQSPSSLSASVGDRVTITCRASQGVRDDLGWYQQKPGKAPKRLIYAASSLQSGVPSRFSGSGSGTEFTLTISSLQPEDFATYYCLQHNSYPFTFGPGTKVDIKRTVAAPSVFIFPPSDEQLKSGTASVVCLLNNFYPREAKVQWKVDNALQSGNSQESVTEQDSKDSTYSLSSTLTLSKADYEKHKVYACEVTHQGLSSPVTKSFNRGEC
notes: as for B4
% Max Inhibition, cAMP HTRF assay, CXCR4 BacMam HEK-293 cells [2]: 91% | IC50, cAMP HTRF assay, CXCR4 BacMam HEK-293 cells, 5.5 nM CXCL12 [2]: 28 nM | % Max Inhibition, beta-arrestin reporter assay, Tango CXCR4-bla U2OS cells [3]: 94% | IC50, beta-arrestin reporter assay, Tango CXCR4-bla U2OS cells, 30 nM CXCL12 [3]: 0.17 nM | % Max Inhibition [4]: 98% | IC50 [4]: 0.72 nM

B14: CL-82556 (antibody, human IgG4 S228P, kappa, V domains shown)
VH: QVQLVESGGGVVQPGRSLRLSCAASGFTFYSYGMHWVRQAPGKGLEWVAVIWYGGTNKYYADSVKGRFTISRDNSKNTLYLQMNSLTAEDTAVYYCARGQLERRRGGLNIWGQGTMVTVSS
VL: DIQMTQSPSSLSASVGDRVTITCRASQGVRDDLGWYQQKPGKAPKRLIYAASNLQSGVPSRFSGSGSGTEFTLTIGSLQPEDFATYYCLQHNSYPFTFGPGTKVDIKR
notes: as for B4
% Max Inhibition, cAMP HTRF assay, CXCR4 BacMam HEK-293 cells [2]: 94% | IC50, cAMP HTRF assay, CXCR4 BacMam HEK-293 cells, 5.5 nM CXCL12 [2]: 17 nM | % Max Inhibition, beta-arrestin reporter assay, Tango CXCR4-bla U2OS cells [3]: 101% | IC50, beta-arrestin reporter assay, Tango CXCR4-bla U2OS cells, 30 nM CXCL12 [3]: 0.14 nM | % Max Inhibition [4]: 99% | IC50 [4]: 0.7 nM
